This note sets out measurements from US20140303084A1 (Biogen, published 2014).

B1: RAAPGKLQCLASYCWLFWTGIA (peptide)
peptide: RAAPGKLQCLASYCWLFWTGIA
B2: PEG16-Lys(PEG2-Biotin)-PEG16-rRAPGKLTCLASYCWLFWTGIA (peptide)
peptide: [PEG16″]K([PEG2″-Biotin])[PEG16″][dR]RAPGKLTCLASYCWLFWTGIA
modifications: cysteine pairing not given here
B3: rRAPGKLTCLASYCWLFWTGIA-PEG16-Lys(PEG2-Biotin)-PEG16 (peptide)
peptide: [dR]RAPGKLTCLASYCWLFWTGIA[PEG16″]K([PEG2″-Biotin])[PEG16″]
modifications: cysteine pairing not given here
B4: RRAPGKLQCLASYCWLFWT-Aib-IA (peptide)
peptide: RRAPGKLQCLASYCWLFWT[Aib]IA
modifications: not fully specified; printed as RRAPGKLQCLASYCWLFWT-Aib-IA; cysteine pairing not given here
B5: RAPGKLQCLASYCWLFWTGIA (peptide)
peptide: RAPGKLQCLASYCWLFWTGIA
B6: rRAPGKLTCLASYCWLFWTGIA-PEG16-Lys(PEG2-Biotin)-PEG16-Lys(palmitoyl) (peptide)
peptide: [dR]RAPGKLTCLASYCWLFWTGIA[PEG16′]K([PEG2(3)-Biotin])[PEG16′]K(Palmitoyl)
modifications: cysteine pairing not given here
B7: PGKLQCLASYCWLFWTGIA (peptide)
peptide: PGKLQCLASYCWLFWTGIA
B8: RRAPGKLQCLASYCWLFWTG (peptide)
peptide: RRAPGKLQCLASYCWLFWTG
B9: RRAPGKLQCLASYCWLFWTG-Tle-A (peptide)
peptide: RRAPGKLQCLASYCWLFWTG[Tle]A
modifications: not fully specified; printed as RRAPGKLQCLASYCWLFWTG-Tle-A; cysteine pairing not given here
B10: KLLKLLLKLLLKLLK-k-MeLeu-TCLASYCWLF (peptide)
peptide: KLLKLLLKLLLKLLK[dK][NMeL]TCLASYCWLF
modifications: not fully specified; printed as KLLKLLLKLLLKLLK-k-MeLeu-TCLASYCWLF; cysteine pairing not given here
B11: rRAAGKATCLASACW LAATGIA (peptide)
peptide: [dR]RAAGKATCLASACWLAATGIA
modifications: not fully specified (C-terminus); printed as rRAAGKATCLASACW LAATGIA; cysteine pairing not given here
B12: RRAPGKLQCLASYCWLFWTGIK (peptide)
peptide: RRAPGKLQCLASYCWLFWTGIK
B13: compound 6 (peptide)
peptide: R[dR]APGKLTCLASYCWLFWTGIA-NH2
modifications: cysteine pairing not given here
B14: RRAPGKLQCLASYCWLFWTG-Nle-A (peptide)
peptide: RRAPGKLQCLASYCWLFWTG[Nle]A
modifications: not fully specified; printed as RRAPGKLQCLASYCWLFWTG-Nle-A; cysteine pairing not given here
B15: RRAPGKLQCLASYCWLF (peptide)
peptide: RRAPGKLQCLASYCWLF
B16: rRASGKLTCLASYCWLFWTGIA (peptide)
peptide: [dR]RASGKLTCLASYCWLFWTGIA
modifications: not fully specified (C-terminus); printed as rRASGKLTCLASYCWLFWTGIA; cysteine pairing not given here
B17: RRAPGKLQCLASYCWLFWKGIA (peptide)
peptide: RRAPGKLQCLASYCWLFWKGIA
B18: compound 18 (peptide)
peptide: RRAPGKLTCLAK([PEG2′-Biotin])YCWLFWTGIA-NH2
modifications: cysteine pairing not given here
B19: Palmitoyl-(PEG)27(PEG)27-KLTCLASYCWLF (peptide)
peptide: {Palmitoyl-(PEG)27-(PEG)27}-KLTCLASYCWLF
modifications: disulfide 4-9 (inferred); not fully specified (C-terminus); printed as Palmitoyl-(PEG)27(PEG)27-KLTCLASYCWLF
B20: Palmitoyl-(PEG)27-KLTCLASYCWLF (peptide)
peptide: {Palmitoyl-(PEG)27}-KLTCLASYCWLF
modifications: cysteine pairing not given here
B21: RRAPGKLQCLASYCWLFWTGFA (peptide)
peptide: RRAPGKLQCLASYCWLFWTGFA
B22: RRAPGKLQCLASYCWLFWT (peptide)
peptide: RRAPGKLQCLASYCWLFWT
B23: RRAPGKLQCLASYCWLFWTKIA (peptide)
peptide: RRAPGKLQCLASYCWLFWTKIA
B24: APGKLQCLASYCWLFWTGIA (peptide)
peptide: APGKLQCLASYCWLFWTGIA
B25: RRAPGKLQCLASYCWLFWTG-(1-Nal)-A (peptide)
peptide: RRAPGKLQCLASYCWLFWTG[1Nal]A
modifications: not fully specified; printed as RRAPGKLQCLASYCWLFWTG-(1-Nal)-A; cysteine pairing not given here
B26: GKLQCLASYCWLFWTGIA (peptide)
peptide: GKLQCLASYCWLFWTGIA
B27: rRAAGKLTCLASYCWLFATGIA (peptide)
peptide: [dR]RAAGKLTCLASYCWLFATGIA
modifications: not fully specified (C-terminus); printed as rRAAGKLTCLASYCWLFATGIA; cysteine pairing not given here
B28: rRAPGKLTCLASYCWLFSTGIA (peptide)
peptide: [dR]RAPGKLTCLASYCWLFSTGIA
modifications: not fully specified (C-terminus); printed as rRAPGKLTCLASYCWLFSTGIA; cysteine pairing not given here
B29: rRAAGKLTCLASACWLFATGIA (peptide)
peptide: [dR]RAAGKLTCLASACWLFATGIA
modifications: not fully specified (C-terminus); printed as rRAAGKLTCLASACWLFATGIA; cysteine pairing not given here
B30: ARAPGKLQCLASYCWLFWTGIA (peptide)
peptide: ARAPGKLQCLASYCWLFWTGIA
B31: compound 20 (peptide)
peptide: RRAPK([PEG2(3)-Biotin])KLTCLASYCWLFWTGIA-NH2
modifications: cysteine pairing not given here
B32: rRAAGKLTCLASYCWLAATGIA (peptide)
peptide: [dR]RAAGKLTCLASYCWLAATGIA
modifications: not fully specified (C-terminus); printed as rRAAGKLTCLASYCWLAATGIA; cysteine pairing not given here
B33: RRAPGKLQCLASYCWLFWTGKA (peptide)
peptide: RRAPGKLQCLASYCWLFWTGKA
B34: H3N-KLTCLASYCWLFG═N-O-CH2-CO-PEG27-CNPRGD-(Y-OEt)-RC (peptide)
peptide: H-KLTCLASYCWLFG[:N‑O‑CH2‑CO‑PEG27]CNPRGDY(OEt)RC
modifications: numbers in words are those of the source; cysteine pairing not given here; also: oxime link =N-O-CH2-CO-PEG27 between G13 and C14, Y20 as Y-OEt
B35: (KLTCLASYCWLFG)2═N-O-(CH2)3-O-N═ (peptide)
peptide: KLTCLASYCWLFG
modifications: cysteine pairing not given here; also: dimer: two copies joined by ═N-O-(CH2)3-O-N═ (linker 1) at residue 13
B36: rRAPGKLTCLASYCWLSWTGIA (peptide)
peptide: [dR]RAPGKLTCLASYCWLSWTGIA
modifications: not fully specified; printed as rRAPGKLTCLASYCWLSWTGIA; cysteine pairing not given here
B37: RRAPGKLQCLASYCWLFW (peptide)
peptide: RRAPGKLQCLASYCWLFW
B38: k-MeLeu-TCLASYCWLA (peptide)
peptide: [dK][NMeL]TCLASYCWLA
modifications: not fully specified (C-terminus); printed as k-MeLeu-TCLASYCWLA; cysteine pairing not given here
B39: RRAPGKLQCLASYCWLFWTGLA (peptide)
peptide: RRAPGKLQCLASYCWLFWTGLA
B40: rRAPGKSTCLASYCWLFWTGIA (peptide)
peptide: [dR]RAPGKSTCLASYCWLFWTGIA
modifications: not fully specified (C-terminus); printed as rRAPGKSTCLASYCWLFWTGIA; cysteine pairing not given here

Bridge positions count the residues as written; N and C are the ends. Square brackets hold non-standard residues; d marks the D form. Primed or numbered codes have the meaning given here. Side chains are listed from the residue outwards. Ends that are not written are not given here. * marks the point of attachment. :N‑O‑CH2‑CO‑PEG27 = oxime linkage (=N-O-CH2-CO-) to a PEG27 spacer; Biotin = O=C1N[C@H]2[C@H](CS[C@H]2CCCCC(=O)*)N1; PEG2(3) = PEG2 spacer carrying biotin on Lys; 1Nal = N[C@@H](Cc1cccc2ccccc12)C(=O)O; Palmitoyl = CCCCCCCCCCCCCCCC(=O)*; NMeL = CN[C@@H](CC(C)C)C(=O)O; Tle = CC(C)(C)[C@H](N)C(=O)O; PEG16″ = not defined here; Nle = CCCC[C@H](N)C(=O)O; PEG2′ = PEG2 spacer unit; PEG2″ = not defined here; PEG16′ = PEG-16 spacer; Aib = CC(C)(N)C(=O)O

The assay has as its target human Factor IXa (human, UniProt P00740 47-191; P00740 227-461). The assay can be described thus: cell-based or functional assay.
B1: the “EC50 [µM], FXa generation assay” value was less than 0.5 µM.
As for B2, the “EC50 [µM], FXa generation assay” value was greater than 1 µM.
For B3, the “EC50 [µM], FXa generation assay” value is less than 0.5 µM.
Take B4: the “EC50 [µM], FXa generation assay” value is greater than 1 µM.
Regarding B5, the “EC50 [µM], FXa generation assay” value was less than 0.5 µM.
Same read-out and setting: the value for B6 was greater than 1 µM.
Same read-out and setting: the value for B7 was less than 0.5 µM; that for B8 was greater than 1 µM; that for B9 was less than 0.5 µM.
On the same count and under the same terms, the value for B10 was less than 0.5 µM.
With B11, the “EC50 [µM], FXa generation assay” value was greater than 10 µM.
In the case of B12, the “EC50 [µM], FXa generation assay” value is greater than 1 µM.
Consider B13, for which the “EC50 [µM], FXa generation assay with hFIXa” value (“EC50 [µM] … with hFIXa” for short) is less than 0.5 µM.
Regarding B14, the “EC50 [µM], FXa generation assay” value is less than 0.5 µM.
Turning to B15, the “EC50 [µM], FXa generation assay” value is greater than 5 µM.
B16: the “EC50 [µM], FXa generation assay” value is less than 0.5 µM.
For B17, the “EC50 [µM], FXa generation assay” value is greater than 5 µM.
Take B18: the “EC50 [µM] … with hFIXa” value was less than 0.5 µM.
In the case of B19, the “EC50 [µM], FXa generation assay” value is greater than 20 µM.
On to B20, for which the “EC50 [µM], FXa generation assay” value was greater than 1 µM.
For the molecule B21, the “EC50 [µM], FXa generation assay” value is less than 0.5 µM.
Turning to B22, the “EC50 [µM], FXa generation assay” value was greater than 1 µM.
On the same count and under the same terms, the value for B23 was greater than 1 µM; that for B24 was less than 0.5 µM.
Regarding B25, the “EC50 [µM], FXa generation assay” value was less than 0.5 µM.
In the case of B26, the “EC50 [µM], FXa generation assay” value is less than 0.5 µM.
As for B27, the “EC50 [µM], FXa generation assay” value was less than 0.5 µM.
B28: the “EC50 [µM], FXa generation assay” value is less than 0.5 µM.
For the molecule B29, the “EC50 [µM], FXa generation assay” value was greater than 1 µM.
On the same count and under the same terms, the value for B30 was less than 0.5 µM.
For B31, the “EC50 [µM] … with hFIXa” value is less than 0.5 µM.
With B32, the “EC50 [µM], FXa generation assay” value was greater than 10 µM.
On the same count and under the same terms, the value for B33 was greater than 5 µM.
In the case of B34, the “EC50 [µM], FXa generation assay” value was greater than 50 µM.
Regarding B35, the “EC50 [µM], FXa generation assay” value is less than 0.5 µM.
For B36, the “EC50 [µM], FXa generation assay” value was greater than 5 µM.
The same measure, in the same setting: the value for B37 was greater than 1 µM; that for B38 was greater than 1 µM.
B39: the “EC50 [µM], FXa generation assay” value is less than 0.5 µM.
Turning to B40, the “EC50 [µM], FXa generation assay” value is less than 0.5 µM.
